The results in this text go back to the DeepSol protein solubility set.

A short description of the data set: soluble on expression in E. coli; label from the status in PepcDB or PDB records.
“MGSDKIHHHHHHMDTKAFKRSLQHSENYNRKGFGHQAEVATQLQSEYQSNLIQEIRDRNYILQRGDVTIRLAQAFGFCWGVERAVAMAYETRQHFPTEHIWITNEIIHNPSVNQRMQEMEVEFIPIEGKNKDFSVVGTGDVVILPAFGASVQEMQILHDKGCKIVDTTCPWVSKVWNTVEKHKKIDYTSIIHGKYKHEETVATSSFAGKYLIVLNLQEAQYVADYIINGGNREEFLTKFAKACSAGFDPDRDLERVGIANQTTMLKDETEQIGKLFERTMLQKYSPIELNQHFQSFNTICDATQERQDAMLELVEHNLNLMVVIGGFNSSNTTQLQQIAFERRIPSYHIDTVERIKSGDSIEHRQLNGQLITTENWLPDGEIVVGITSGASTPDKVVEDVIEKIFAVKATAALV”: the “soluble on expression in E. coli” value is recorded as “not soluble”.

On to “QIVPLFFQDVTNQPIEGMKPRSALEVEGRDVFIANGCVGCHSQMIRPLRAETERYGHYSVAGESVWDHPFLWGSKRTGPDLARIGGRYSDEWHRVHLNNPRDLVPASIMPAYPFLAGKHIDSTQTAKKLQVLRTLGTPYSDADITGAAAAVQGKTEMDALVAYLQGLGTLIKSKR”, for which the “soluble on expression in E. coli” value is listed as “not soluble”. Under “MGSDKIHHHHHHEDDNIRPFGKDVEAGAPGVVSEIKVKNIPGGAVISYQLPDNPDIMYVRARYKVGQGKEMEARASVYANELTVNGFGDMNEHEVELSCVDRMENEGATTVAVVTPLKPSVLTTFESLEVNATFGGVYVNFKNPEKASLSIHVVTTDSLNQPYEAHVQYTQAEKGPFYVRGFKAEERMFDIYVVDRWGNSSDTLYNVLTPYEETRLNKKLFYPYILPNDVACNAWGGNLAYAWNDDYTPALFVHSPGGDTFPMWFTFDMGVTAKLSRYKFYHLFMEEHAFQRGNLKTWEVWGRTDTPPADGSWDGWTKLMDCESHKPSGLPVGQHTAEDWEYLQAGEDFEFPAEAPPVRYIRFKVLETWGGMDFIHFTEFTFWGNVISNN” stands “not soluble”; under “MGSDKIHHHHHHMLEQQATIVDVNESNLNQVLEHSATLPVLFYFWSARSQHCVELEPVLDKLAQEYAGQFVLAKVDCDAEQRVAAQFGLRSIPTVYLFKDGQPLDGFQGPQPEEAVRELLKRALPKEEELKVAQAQQLIQEDKLPEAMQLLKDAWQLSQQRSDIGLMLAEVQIQIKRSEDAEAVLAAIPLQDQDTRYHSLVAQIELLKQAADTPEIQHLQQQLDADPQNADLAVQLALQLHQVSRNEEALELLMGFLKKDLAVANGSARKTLMDIMAALGTSDALAARYRRQLYSLLY”, “not soluble”. Take “MGSDKIHHHHHHMASNITGFELFKSNPNWQELPDSFWEFCSAHGRVRHYAAKQFLFFFGEESNSVYFLLKGRIQILLMSEFTEKIFRILQPPAFFPEVVLDSKTYPYAALTAEASDVFVLDRKALVQYFKENPSTLLPFYQNMALDLRRAYRQIKNIALGDARSRLGAKLFALAHVHGQETPEGILITVPLTATELAGMCSLARESVSRILSELRDLGILKMEKKQITISDLEQLRSWIHERQNSL”: the “soluble on expression in E. coli” value is “not soluble”. On to “MRGKVYLVGAGFGGPEHLTLKALRVLEVAEVVLHDRLVHPGVLALAKGELVPVGKEGYGGKTPQEAITARLIALAREGRVVARLKGGDPMVFGRGGEEALALRRAGIPFEVVPGVTSAVGALSALGLPLTHRGLARSFAVATGHDPALPLPRADTLVLLMPLHTLGGLKERLLERFPPETPLALLARVGWPGEAVRLGRVEDLPGLGEGLPSPALLVVGKVVGLYGELLPKDHGL”, for which the “soluble on expression in E. coli” value is “soluble”. Turning to “SYRSRSAFKLLEVNERHQILRPGLRVLDCGAAPGAWSQVAVQKVNAAGTDPSSPVGFVLGVDLLHIFPLEGATFLCPADVTDPRTSQRILEVLPGRRADVILSDMAPNATGFRDLDHDRLISLCLTLLSVTPDILQPGGTFLCKTWAGSQSRRLQRRLTEEFQNVRIIKPEASRKESSEVYFLATQYHGRKGTVKQ”, the “soluble on expression in E. coli” value is “soluble”. As to “MNSRIMFIGGVPGVGKTSISGYIARNTDIDIVLSSDYLREFLRPFAPQESHLETSVYDAWKFYGDMSDDNIIRGYLDQARPIMGGINRVIARALANGEDLIIESLYFVPDMMDEMVLKNAFLAYVYIDDPDLHRSRLEDRINYTHRNSPGSRLAAHLKEYRTIMDYSMDMARGRGIGLYSTDDYALARQRLLDDFRKFVDRR”, the “soluble on expression in E. coli” value was “not soluble”. In the case of “MNVFKTQTLLCPSGVHSRPEDHDETPFLCSKAQSVTVVAFLVARLLATLATHQMTSHTEGLRKGGGRKDTQLMKGQCSAIKVIFWPGCLPQPRMHSRLHIRSINKGGQLRPTGCNK”, the “soluble on expression in E. coli” value is “soluble”.

Take “MSLASRQAIGFIAPSLAGEFMTGVMEGILQSLRKHQYDLIAVQGAPQHLINNQLAKQHIKAWIVIIDPTGLNELATNMPAVVISAPNAGERFPLVMPDNNQSARAMVEHLIEHGHSKIAFVGNFNNSDMRDRYTVYCDVLNEHSITPNPAWVVDVGDYTEGRTEHAFYPLIANGLNFSAVVAANDQQAVGVMMALETKGYRVPHDMAVVGFDDATIAQHANPPLTTVRQQPQLLGSIAADTVIELIAGKPVSNAPIYVPTIPIWRQSCGCKDVYTGIKEGHHHHHH”: the “soluble on expression in E. coli” value was “not soluble”. Regarding “MAKVSVVMPVYNSEKYLKESIESILNQSYSDLEFIIINDGSTDNSFKIIKEYAKLDKRINVISRENKGIVYSLNEAIRLAKGEYIARMDADDISAPKRIEKQISFLKSHRDIDILGTQVKVVGNISNDIKEKNENKLNIEFDIYDDNREKILNYWYCLAHPSVMFRKDILRELKGYNDFKSEDLDLWLRAIESGFKIYKLKEELIYFRMHEESKTRVDNQNYEGLKDGIKIKLIDVFKREFKKDFKYIVWGASNGGKITKEVLDEFFEKSQCIAFVDKFKTGEFEKIRILHPKDINHIKFDYVFIATEPGKEEAMSSLKSMGLKCIKDFLSTVLEHHHHHH”, the “soluble on expression in E. coli” value is reported as “not soluble”. Take “MASISSLGVGSGLDLSSILDSLTAAQKATLTPISNQQSSFTAKLSAYGTLKSALTTFQTANTALSKADLFSATSTTSSTTAFSATTAGNAIAGKYTISVTHLAQAQTLTTRTTRDDTKTAIATSDSKLTIQQGGDKDPISIDISAANSSLSGIRDAINNAKAGVSASIINVGNGEYRLSVTSNDTGLDNAMTLSVSGDDALQSFMGYDASASSNGMEVSVAAQNAQLTVNNVAIENSSNTISDALENITLNLNDVTTGNQTLTITQDTSKAQTAIKDWVNAYNSLIDTFSSLTKYTAVDAGADSQNSSNGALLGDSTLRTIQTQLKSMLSNTVSSSNYKTLAQIGITTDPSDGKLELDADKLTAALKKDASGVGALIVGDGKKTGITTTIGSNLTSWLSTTGIIKAATDGVSKTLNKLTKDYNAASDRIDAQVARYKEQFTQLDVLMTSLNSTSSYLTQQFENNSNSK”: the “soluble on expression in E. coli” value is given as “not soluble”. Take “MMKIAIIGSGISGLTCGYYLHRYHDITLFEANDYIGGHTATVDVELAGKPYAVDTGFIVYNDRTYPNFIKMMDEIGVQGKPTQMSFSVRNDANGLEYNGHTLTTLFAQKRNWLNPKFYRFIAEILRFNRLTKACVDNQLANEQTLGDFLAQHQFSEYFCENYILPMGAAIWSSSLADMRAFPLMFFARFFLNHGLLDVTNRPQWYVIPGGSRSYIAPLTQGFGDRIRLNSAVTQVKRLPSGVEVVVNGRSERFDEVIFACHSDQALAMLSDASSTEQQLLSALAYQANEVVLHTDTRLLPKRKAAWAAWNYWLKGEANQETRLPSLTYNMNILQHIEAPETFCVTLNSSEDIDPSKILRRFTYHHPVFSRPAIEAQQKKAQISGVNHTWFCGAYWHNGFHEDGVRSALDVVTQLEAYAQRSEQGAALEHHHHHH”: the “soluble on expression in E. coli” value was “soluble”.

With “SDGPERDFNLKVVLISFKKCLTDKGEVLLDHYTASWKGLVRFLNSLGAVFSFISKDVVSKLQIMEHLRSGPQSEHYISLQSMVAYEVSNKLVDRDSRSRPRHPNSGCRTVLRLHRALHWLQLFLEGLRTSSEDARTSTLCSEAYNATLAAYHSWIVRQAVNVAFHALPPRKVFLEAMNMGSSEQAVEMLGEALPFIEQVYDISQKLYAEHSLLDLP”, the “soluble on expression in E. coli” value is reported as “soluble”.

Turning to “MKVDLNSDLGESFGRYKLGLDDEVMKYITSANVACGWHAGDPLVMRKTVRLAKKNNVQVGAHPGYPDLMGFGRRYMKLTPEEARNYILYQIGALYAFVKAEGLELQHVKPHGALYNAMVKEEDLARAVIEGILDFDKRLIVVTLAGSRVVEIAREMGARVAQEGFADRAYNPDGTLVPRSRPGAVIEDKEEIAERVISMVKDGGIRAINGEWIELEVDTICVHGDNPKAVEITAYIRRRLEEEGVKVLPMGDFIK”, the “soluble on expression in E. coli” value is “soluble”.

As for “MNPNTVPTPARGAIRWEAHTCLPLLPNQDMSALLRYRDNGFHHVSVNVGMDMTAVGDVMQVIAGFRQWLIKHPENFMLAGTLADLQRARVQDKLAVSFDLEGSNMLLQDQAMVRLYADLGVRQMLLAYNLDNSCAGGCHGSGMGLTALGREFVGAINSAGIVMDCSHASKRASMEIIELSQRPVVFSHTNIKAVYDHPRTVDDEQIMACVESGGVIGLTGMGIFLGDPQASVEAFVRQIDYLAERAGTAHIGLGLDIELHPDDKDLAEGVNEDDWWPKEFYGGINGHRQLQPEALGQVAEALLRIGYDAAQINGIFGGNFMRVAQATWP”, the “soluble on expression in E. coli” value was “not soluble”. Consider “TTVNETTPIAPAKVLPDAQTVTSVRHWTDTLFSFRVTRPQTLRFRSGEFVMIGLLDDNGKPIMRAYSIASPAWDEELEFYSIKVPDGPLTSRLQHIKVGEQIILRPKPVGTLVIDALLPGKRLWFLATGTGIAPFASLMREPEAYEKFDEVIMMHACRTVAELEYGRQLVEALQEDPLIGELVEGKLKYYPTTTREEFHHMGRITDNLASGKVFEDLGIAPMNPETDRAMVCGSLAFNVDVMKVLESYGLREGANSEPREFVVEKAFVGEGI”, for which the “soluble on expression in E. coli” value is recorded as “soluble”.

Take “MGSDKIHHHHHHMPGWAGYYLEFHGNAYSAPFSADIYINVAYPYDGKLVELGGSILGHNQYFYVKSPYTFPDNVHNVDGYVVEWFDEDWQKWVLWHVSYKPALQVIGCPYVSTWNGIEYVPENTVLVESEILKPRKHMDLTDYYLINNSHTIRENIYSIQLQEFEQDTSYIDSIELLVVDYPQGLELSLDPQGNIVLYIPIHTRLNTRFTTEIASSNVNRLKTDLVIVSPYVKTSYSFKVNKVYENKSVESIHLYPRMFPYRYALFTDKDISKLKMELNDHKLYSIEYGIPVNASYHIVKEKPLLATSDIGGEITEELLEDDGHYAVLTPGDNITLNFKVPPALSSRMKRALILVIKGFYVQKPPTLTKDAVRVIYVPEINGYLFVPLLETYDEILSIMWDFGDGTTSDFFVPFHVYKQGKYKGSLKVKYLNGKTLTIPFYWGG”: the “soluble on expression in E. coli” value is recorded as “not soluble”. As for “MGSDKIHHHHHHMSLEATDSKAMVLLMGVRRCGKSSICKVVFHNMQPLDTLYLESTSNPSLEHFSTLIDLAVMELPGQLNYFEPSYDSERLFKSVGALVYVIDSQDEYINAITNLAMIIEYAYKVNPSINIEVLIHKVDGLSEDFKVDAQRDIMQRTGEELLELGLDGVQVSFYLTSIFDHSIYEAFSRIVQKLIPELSFLENMLDNLIQHSKIEKAFLFDVNSKIYVSTDSNPVDIQMYEVCSEFIDVTIDLFDLYKAPVLRNSQKSSDKDNVINPRNELQNVSQLANGVIIYLRQMIRGLALVAIIRPNGTDMESCLTVADYNIDIFKKGLEDIWANARASQAKNSIEDDV”, the “soluble on expression in E. coli” value is recorded as “not soluble”. As to “METKFYNHQGGHLILYFAGWGTPPDAVNHLILPENHDLLICYDYQDLNLDFDFSAYRHIRLVAWSMGVWAAERALQGIRLKSATAVNGTGLPCDDNFGIPCTVFKGTLENLTENTRLKFERRMCGDKASFEDYQQFPARPFGEIHQELIALFAMIGQDRRTDLIRWTNALVGSGDKIFMPANQHRYWTPRCTVREIDVGHYLFSRFTHWSALWNH”, the “soluble on expression in E. coli” value is “not soluble”.
